In PMC6792133:

Assays:
[1] = biological target: NbPI4KII-mGFP (Nicotiana benthamiana); assay: FRET or BRET; FRET in agroinfiltrated N. benthamiana leaf epidermal cells, 3 dpi; mGFP donor, DsRed acceptor; Olympus FluoView FV1000
[2] = biological target: Capsicum annuum phosphatidylinositol 4-kinase type II (CaPI4KII), yeast two-hybrid fusion (Capsicum annuum)
[3] = biological target: NbPI4KII-mGFP (Nicotiana benthamiana)
[4] = biological target: NbPI4KII-mGFP (Nicotiana benthamiana); remark: listed apart in the source

ChiLCV Rep1-120-DsRed (domain or fragment)
FRET efficiency [1]: 72%

ChiLCV Rep1-180-DsRed (domain or fragment)
percentage of cells with CaPI4KII-mGFP restricted to the nucleus when co-expressed with Rep1-180-DsRed [2]: 61%
percentage of cells with NbPI4KII-mGFP exclusively inside the nucleus when co-expressed with Rep1-180-DsRed (N = 16) [3]: 87%
FRET efficiency [1]: 43%

ChiLCV Rep181-361-DsRed (domain or fragment)
percentage of cells with CaPI4KII-mGFP restricted to the nucleus when co-expressed with Rep181-361-DsRed [2]: 41%
percentage of cells in which NbPI4KII-mGFP was redirected into the nucleus when co-expressed with Rep181-361-DsRed (N = 17) [3]: 78%
FRET efficiency [1]: 76%

ChiLCV Rep-DsRed (natural protein)
FRET efficiency [1]: 47%
percentage of cells with NbPI4KII-mGFP only inside the nucleus when co-expressed with Rep-DsRed (N. benthamiana epidermis, N = 19) [4]: 63%
